# Results from patent US20050009067A1, “Expression profile of pancreatic cancer” (priority 2003, published 2005).
# B1: S100P: purified S100P generated as a His-tagged fusion protein in bacteria (protein, UniProt P25815 1-95, looked up)
# Protein S100-P: MTELETAMGMIIDVFSRYSGSEGSTQTLTKGELKVLMEKELPGFLQSGKDKDAVDKLLKDLDANGDAQVDFSEFIVFVAAITSACHKYFEKAGLK
# modifications: His tag
# notes: purified S100P generated as a His-tagged fusion protein in bacteria
# Experiments:
# [1] = molecular target: RAGE (endogenous, of NIH3T3 cells) (UniProt Q62151); test: cell-based or functional assay
# NIH3T3 cells [2] = test: NIH3T3 cell survival after apoptotic insults (5-FU, anoikis on polyHEMA); format: cell-based
# Method: Apoptosis was induced in NIH3T3 cells either by prevention of cell adhesion to a solid substrate (anoikis) or by use of 5-flurouracil. To prevent cell adhesion, 6 well plates were covered (3 ml/well) with a solution of polyhydroxyethylmethacrylate (polyHEMA; Sigma-Aldrich) dissolved at 10 mg/ml in ethanol. Plates were kept at 37° C. for 5 days to evaporate solvent completely. Cells were resuspended at 5×10^4 cells/ml and were cultured (1 ml/well) in DMEM medium containing 10% fetal calf serum for different times on polyHEMA coated dishes at 37° C. and 5% CO2. Subsequently, cells were subjected to cell viability studies using MTS or recovered and analyzed for caspase 3 activity.
# S100 proteins = conditions: Okada et al. 2002; cited from earlier work
# NF-κB = NF-κB electrophoretic mobility shift assay in NIH3T3 cells; format: cell-based
# Method: Nuclear extracts were prepared and used for electrophoretic mobility shift assays (EMSAs) as previously described (Han et al., Am. J. Physiol. 277:C74 [1999]). For NF-κB DNA binding the reaction was started by addition of 10,000 cpm of the 22-base pair oligonucleotide 5′-AGTTGAGGGGACTTTCCCAGGC-3′ (SEQ ID NO:7) containing the NF-κB consensus sequence that had been labeled with [γ-32P]-ATP (10 mCi/mmol) by T4 polynucleotide kinase. The reaction was allowed to proceed for 30 min at room temperature. For cold competition experiments unlabeled NF-κB oligonucleotide or OCT1 oligonucleotide as a nonspecific competitor (300×) were added to the binding reaction 5 min before the addition of the radiolabeled probe. For antibody supershift assays 2 μl of specific antibodies to NF-κB protein subunits p65, p50, and c-Rel were incubated with nuclear extracts for 1 hour at room temperature prior to the addition of labeled probe. All reaction mixtures were subjected to PAGE on 4.5% gel in 0.5×TBE buffer at 200 V. Gels were dried and directly exposed to the membranes were exposed to a B-1 phosphoimaging screen and visualized by the use of GS-250 Molecular Imaging System (Bio-Rad Laboratories, Richmond, Calif.).
# NIH3T3 cells [3] = test: Cell growth (MTS) of NIH3T3 cells with exogenously applied purified S100P; format: cell-based
# Method: Cell growth was analyzed by using MTS reagent (Promega, Madison, Wis.) as per manufactures directions. For studies on the effects of S100P expression, vector alone and three different clonal S100P stably transfected cell lines (1000 cells/well) were seeded into 96 well plates and cell growth was studied from 0-120 hrs. For studies on the effects of exogenously applied S100P, purified S100P was added at indicated concentrations for specific times. MTS was added to the wells one hour before taking the photometric reading.
# Full length S100P cDNA was cloned into pTrcHis2 vector (Invitrogen, Carlsbad, Calif.) and transformed into one shot TOP10 competent E.coli. The bacterial culture was incubated at 37° C. to an OD600=0.6, then IPTG (1 mM) was added and the bacteria were cultured for another 3 hrs. His-S100P was purified using Probond resin column as described by the manufacturer (Invitrogen, Carlsbad, Calif.). The fraction was further dialyzed against 10 mM Tris, pH 8.0, containing 01% Triton X 100 overnight at 4° C. using a Slide-A-Lyzer 10K (Pierce, Rockford, Ill.). Dialyzed protein was further concentrated by Centricon centrifugal filter device YM10 (Millipore, Bedford, Mass.). The purified S100P protein was confirmed by western blot and ELISA and used for in vitro experiments.
# Erk 1 & 2 = Erk 1 & 2 phosphorylation in NIH3T3 cells (western blot); format: cell-based
# Method: Western blot analysis was utilized for the detection of S100P, RAGE, as well as activated Erks and caspase 3 by minor modifications of previously published methods. Cell lysates were prepared and separated by SDS polyacrylimide gel electrophoresis and transferred to nitrocellulose. Membranes were blocked by overnight incubation at 4° C. in 5% milk solution. S100P was detected usingmonoclonal antibodies (Transduction Laboratories, San Diego, Calif.) by incubating the membrane overnight at 4° C. in antibody diluted 1:100 in 5% milk solution. RAGE was detected using goat polyclonal antibodies (Santa Cruz, Santa Cruz, Calif.) by incubating the transferred membrane in for one hour at room temperature with antibody diluted 1:100 in 5% milk solution. Caspase 3 activation was estimated by detection of pro-caspase 3 and active caspase 3 fragments using rabbit polyclonal antibodies against full length caspase 3 (Santacruz Biotech, Calif.) by incubating the membrane at 4° C. for overnight with antibody diluted 1:100 in 5% milk solution. Erk activation was estimated by detection of phosphorylated forms of Erk 1 and 2 using phospho-p44/42 MAP kinase (Thr202/Tyr204) antibody (Cell Signaling, Beverly, Mass.) and, as a loading control after striping, a rabbit polyclonal antibody for total Erk 1 & 2 (Santa Cruz, Santa Cruz, Calif.) by incubating the membrane at 4° C. overnight with antibody diluted 1:100 in 5% milk solution. Second antibody anti-mouse, anti-rabbit, or anti-goat IgG+HRP was incubated for one hour at room temperature and the signal was detected by ECL detection system (Amersham) as per manufacturer protocol.
# RAGE = molecular target: T1, RAGE (Mus musculus, UniProt Q62151); test: Co-immunoprecipitation (pull-down) of S100P with RAGE from NIH3T3 lysates; format: binding; conditions: NIH3T3 lysates incubated with S100P and S100P antibody
# T1 construct: RAGE was present in the S100P complexes from wild-type NIH3T3 cells incubated with exogenous S100P and S100P antibody; endogenous in cells; host or cells: NIH3T3 cell lysates for RAGE; E. coli TOP10 for the added His-S100P
# Method: For co-immunoprecipitation experiments, cell lysates were incubated in the absence or presence of S100P (1 μg) at 4° C. overnight. S100P was immunoprecipitated using mouse monoclonal antibody against S100P (Transduction Laboratories, San Diego, Calif.), for 6 hours at 4° C. and IgG immobolized beads (Pierce, Rockford, Ill.). Antibody associated proteins were electrophoresed on 10% polyacrylamide gel and transferred to nitrocellulose membrane. Transferred membrane was blocked by 5% milk solution overnight at 4° C. RAGE was detected as described.
# Sequence of RAGE (endogenous, of NIH3T3 cells) (Q62151 23-402 limits assumed): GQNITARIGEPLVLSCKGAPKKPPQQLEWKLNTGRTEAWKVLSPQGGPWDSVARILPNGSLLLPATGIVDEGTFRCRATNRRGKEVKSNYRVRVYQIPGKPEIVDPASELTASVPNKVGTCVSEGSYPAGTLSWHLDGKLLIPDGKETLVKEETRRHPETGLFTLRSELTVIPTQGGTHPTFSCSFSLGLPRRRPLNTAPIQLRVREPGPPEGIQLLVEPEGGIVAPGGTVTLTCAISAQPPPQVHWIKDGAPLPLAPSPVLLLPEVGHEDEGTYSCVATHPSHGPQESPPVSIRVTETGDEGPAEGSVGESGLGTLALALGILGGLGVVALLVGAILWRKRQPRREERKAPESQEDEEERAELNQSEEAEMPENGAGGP
# T1 sequence (Q62151 23-402): as the sequence (Q62151 23-402 limits assumed) above
molecule,measurement,setting,value
synthetic peptide derived from amphoterin (RAGE antagonist peptide),inhibition of S100P activation of Erk,[1],50 nM
same,"inhibition of S100P activation of Erk, complete",[1],500 nM
"O=c1[nH]cc(F)c(=O)[nH]1 [5-FU, 5-fluorouracil, reference compound]",killing of NIH3T3 cells,"NIH3T3 cells [2]; wild-type vs S100P expressing NIH3T3 cells, 5-FU 150 ug/ml (FIG. 5B)",efficiently kill wild-type but not S100P expressing NIH3T3 cells
CC(C)c1ccc2oc3nc(N)c(C(=O)O)cc3c(=O)c2c1 [amlexanox],interaction with S100 proteins,S100 proteins,interact with S100 proteins
CN(C)CC/C=C1/c2ccccc2COc2ccc(CC(=O)O)cc21 [olopatadine],interaction with S100 proteins,S100 proteins,interact with S100 proteins
purified His-S100P protein (His-tagged fusion protein of full length S100P made in E. coli) (from UniProt P25815 1-95) (ligand),"NIH3T3 cell proliferation, fold over control",[1],2 fold
same,survival of NIH3T3 cells after 5 FU,[1],1 nM
B1,duration increase in NF-κB DNA binding was maintained,"NF-κB; S100P, NIH3T3, EMSA",at least 2 hours
same,time to initiation of increase in NF-κB DNA binding,"NF-κB; S100P, NIH3T3, EMSA",≤ 10 min
same,concentration at which significant effects on NF-κB activation were noted,NF-κB; concentration dependence,0.1 nM
same,concentration giving maximal effect on NF-κB activation,NF-κB; concentration dependence,100 nM
same,concentration giving maximal effect on cell proliferation,NIH3T3 cells [3]; NIH3T3 cells,100 nM
same,concentration at which effects on cell proliferation were noted,"NIH3T3 cells [3]; purified S100P added to NIH3T3 cells, dose-response",10 pM
same,time after which significant increase in cell proliferation was noted,NIH3T3 cells [3]; time-course,48 h
same,maximal effect on cell proliferation,NIH3T3 cells [3]; with 100 nM S100P,~2 fold over control
same,concentration at which effects on Erk phosphorylation were noted,Erk 1 & 2; dose-response,10 pM
same,concentration giving maximal effects on Erk phosphorylation,Erk 1 & 2; dose-response,100 nM
same,duration Erk phosphorylation remained significantly elevated,"Erk 1 & 2; purified S100P, NIH3T3",at least 2 hours
same,time of maximal increase of Erk phosphorylation,"Erk 1 & 2; purified S100P, NIH3T3",30 min
same,time to significant Erk 1 & 2 phosphorylation,"Erk 1 & 2; purified S100P, NIH3T3",≤ 10 min
same,interaction with RAGE (co-immuno-precipitation),RAGE,can interact directly with RAGE
same,concentration at which protection from the effects of 5 FU was noted,"NIH3T3 cells [2]; S100P added to culture medium, NIH3T3",1 nM
same,time after which significant protection from anoikis was noted,NIH3T3 cells [2]; time-course,36 h
